Source: doi:10.1101/481457

Molecular target: human HSF2-YFP (human) (UniProt Q03933)
Experiment: fluorescent three-hybrid assay

Sequence of human HSF2-YFP (human) (Q03933 whole entry): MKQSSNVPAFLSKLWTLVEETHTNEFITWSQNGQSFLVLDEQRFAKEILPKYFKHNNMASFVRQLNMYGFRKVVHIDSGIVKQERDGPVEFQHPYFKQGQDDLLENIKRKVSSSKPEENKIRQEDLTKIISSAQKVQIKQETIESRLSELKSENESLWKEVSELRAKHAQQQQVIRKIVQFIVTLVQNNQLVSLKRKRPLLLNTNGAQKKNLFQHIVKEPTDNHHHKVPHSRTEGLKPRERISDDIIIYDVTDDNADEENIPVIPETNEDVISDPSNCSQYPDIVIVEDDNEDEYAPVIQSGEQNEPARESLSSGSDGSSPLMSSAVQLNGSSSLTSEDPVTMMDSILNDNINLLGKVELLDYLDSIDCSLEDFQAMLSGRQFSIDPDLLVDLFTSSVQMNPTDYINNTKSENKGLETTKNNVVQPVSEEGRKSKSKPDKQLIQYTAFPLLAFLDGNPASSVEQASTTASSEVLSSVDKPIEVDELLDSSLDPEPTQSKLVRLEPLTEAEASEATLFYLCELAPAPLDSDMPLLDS
Sequence of CBP-HA, Q92793 1-2442 (natural protein) (Q92793 whole entry): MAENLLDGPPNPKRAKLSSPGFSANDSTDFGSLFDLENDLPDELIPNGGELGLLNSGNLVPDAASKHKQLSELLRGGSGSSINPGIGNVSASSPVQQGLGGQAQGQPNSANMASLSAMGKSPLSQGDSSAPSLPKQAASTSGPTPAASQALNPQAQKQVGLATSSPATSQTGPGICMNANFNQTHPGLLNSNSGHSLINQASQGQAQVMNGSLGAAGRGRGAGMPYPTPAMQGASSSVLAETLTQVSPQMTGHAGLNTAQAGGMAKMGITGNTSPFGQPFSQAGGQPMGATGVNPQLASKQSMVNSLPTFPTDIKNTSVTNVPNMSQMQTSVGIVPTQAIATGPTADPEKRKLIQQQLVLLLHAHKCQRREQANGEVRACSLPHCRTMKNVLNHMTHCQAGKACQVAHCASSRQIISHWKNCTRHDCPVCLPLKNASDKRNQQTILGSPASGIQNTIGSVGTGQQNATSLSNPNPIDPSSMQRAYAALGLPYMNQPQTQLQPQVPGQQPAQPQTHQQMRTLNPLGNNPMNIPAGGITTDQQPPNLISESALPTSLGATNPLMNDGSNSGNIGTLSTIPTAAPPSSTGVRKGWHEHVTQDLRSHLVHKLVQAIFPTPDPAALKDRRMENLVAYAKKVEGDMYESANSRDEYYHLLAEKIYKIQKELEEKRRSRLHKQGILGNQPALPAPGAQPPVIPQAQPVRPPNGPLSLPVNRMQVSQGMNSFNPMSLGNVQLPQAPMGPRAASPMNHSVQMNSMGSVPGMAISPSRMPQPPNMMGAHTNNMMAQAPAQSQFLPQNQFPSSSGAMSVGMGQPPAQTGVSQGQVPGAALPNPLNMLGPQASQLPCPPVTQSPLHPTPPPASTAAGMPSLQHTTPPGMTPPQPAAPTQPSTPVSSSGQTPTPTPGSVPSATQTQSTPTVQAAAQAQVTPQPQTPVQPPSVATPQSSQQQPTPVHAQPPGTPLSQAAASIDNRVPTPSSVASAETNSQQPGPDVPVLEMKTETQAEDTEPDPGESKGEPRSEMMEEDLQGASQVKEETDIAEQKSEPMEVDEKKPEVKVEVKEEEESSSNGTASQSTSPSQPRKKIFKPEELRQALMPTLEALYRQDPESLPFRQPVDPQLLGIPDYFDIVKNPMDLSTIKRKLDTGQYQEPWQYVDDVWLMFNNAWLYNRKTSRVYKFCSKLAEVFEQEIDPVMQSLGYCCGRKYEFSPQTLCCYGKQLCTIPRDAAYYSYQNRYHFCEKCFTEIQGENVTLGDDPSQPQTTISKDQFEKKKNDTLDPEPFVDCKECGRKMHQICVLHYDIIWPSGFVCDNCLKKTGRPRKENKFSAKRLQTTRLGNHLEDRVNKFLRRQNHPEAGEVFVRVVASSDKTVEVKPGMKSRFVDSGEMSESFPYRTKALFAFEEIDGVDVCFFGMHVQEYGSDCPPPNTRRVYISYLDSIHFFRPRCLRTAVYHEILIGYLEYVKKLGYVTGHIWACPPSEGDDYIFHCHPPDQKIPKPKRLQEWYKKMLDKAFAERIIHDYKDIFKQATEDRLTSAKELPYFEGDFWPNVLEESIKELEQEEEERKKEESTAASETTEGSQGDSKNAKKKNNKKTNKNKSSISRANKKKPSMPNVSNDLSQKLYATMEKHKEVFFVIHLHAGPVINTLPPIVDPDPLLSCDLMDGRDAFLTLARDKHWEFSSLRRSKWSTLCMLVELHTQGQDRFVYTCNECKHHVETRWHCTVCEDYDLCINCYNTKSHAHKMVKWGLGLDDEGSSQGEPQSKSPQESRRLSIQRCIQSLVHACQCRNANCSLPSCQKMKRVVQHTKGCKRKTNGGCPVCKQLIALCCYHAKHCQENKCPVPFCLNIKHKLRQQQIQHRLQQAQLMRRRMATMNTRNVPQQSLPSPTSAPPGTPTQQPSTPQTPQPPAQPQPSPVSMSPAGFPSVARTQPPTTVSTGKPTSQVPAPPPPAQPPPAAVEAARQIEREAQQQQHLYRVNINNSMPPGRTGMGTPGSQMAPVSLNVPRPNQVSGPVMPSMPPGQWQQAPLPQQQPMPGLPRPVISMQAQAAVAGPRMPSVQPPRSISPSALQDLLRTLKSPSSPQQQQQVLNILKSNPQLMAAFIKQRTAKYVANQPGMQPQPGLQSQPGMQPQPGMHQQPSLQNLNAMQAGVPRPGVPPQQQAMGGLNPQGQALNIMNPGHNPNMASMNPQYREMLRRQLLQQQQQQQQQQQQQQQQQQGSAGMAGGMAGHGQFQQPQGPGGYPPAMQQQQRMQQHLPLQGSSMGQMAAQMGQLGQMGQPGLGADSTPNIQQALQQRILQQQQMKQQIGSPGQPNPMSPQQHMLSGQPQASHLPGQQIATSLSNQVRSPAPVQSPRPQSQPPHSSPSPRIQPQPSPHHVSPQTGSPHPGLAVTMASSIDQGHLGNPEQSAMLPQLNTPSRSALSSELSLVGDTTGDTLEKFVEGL

## CBP-HA, Q92793 1-2442 (natural protein)
  percent of cells showing co-recruitment to the HSF2-YFP focus: 68.4%

## EP300-HA, Q09472 1-2414
  percent of cells showing co-recruitment to the HSF2-YFP focus: 48.6%

## endogenous CBP of BHK cells (natural protein)
  percent of cells showing co-recruitment with HSF2-YFP: 43.9%
